According to US20240043521A1 (ARXX THERAPEUTICS, published 2024):

Tests used:
[1] = target: T1, human S100A4 protein (human, UniProt P26447 1-101); assay: Western blot
T1 construct: also called S100A4 (human)

[2] = target: T2, A8 (lane under "Human S100 Proteins"); assay: Western blot on human S100 proteins
T2 construct: also called human S100A8
T2 chain: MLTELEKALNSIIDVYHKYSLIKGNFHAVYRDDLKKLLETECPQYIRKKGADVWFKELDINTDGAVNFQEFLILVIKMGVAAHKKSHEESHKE

[3] = target: A6 (lane under "Human S100 Proteins") (Homo sapiens, UniProt P06703); assay: Western blot on human S100 proteins

T1 sequence (P26447 whole entry, one chain of several): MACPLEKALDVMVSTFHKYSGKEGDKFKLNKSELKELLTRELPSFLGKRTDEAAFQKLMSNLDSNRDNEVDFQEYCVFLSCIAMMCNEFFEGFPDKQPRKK

B1: VH1_40Phe:VL3_Leu44 (antibody, V domains shown)
VH: QVQLQESGPGLVKPSQTLSLTCTVSGDSFTNDYYWNWIRQFPGKGLEWIGHIGYGGNINYNPSLKNRLSMSRDTSKNQFSLKLSSVTAADTAVYYCTRESFYDGYPFDYWGQGTLVTVSS
VL: DIQMTQSPSSLSASVGDRVTITCRASQDIRNYLNWYQQKPGKALKLLLYYTSRLHSGVPSRFSGSGSGTDYTLTISSLQPEDFATYYCQQGNSLPRTFGGGTKVEIK
notes: also called Phe40/Leu44; VH1_H40Phe VL3_L44Leu
B1: binds [1]; no binding [2]; no binding [3].
